The results in this text go back to patent US20210246195A1 (CZ BIOHUB SF, published 2021).

The term Kd denotes the constant that tells how readily two partners part at equilibrium.

Experiment [1] has as its target T1, BSA (UniProt P02769 25-607).
T1 construct: also called bovine serum albumin; immobilized BSA
As to the kind of experiment: indirect ELISA heat map, hIgG subtracted. In general terms: An ELISA detects its analyte on a solid surface through an enzyme-linked reagent.

Experiment [2] addresses T1, BSA. Description: indirect ELISA, OD heat map.
The target of experiment [3] is T2, Ara h 3 (purified natural peanut allergen) (Arachis hypogaea).
T2 construct: mature; bought natural protein; also called natural Ara h 3; NA-AH3-1
T2 sequence (main, as listed by the source): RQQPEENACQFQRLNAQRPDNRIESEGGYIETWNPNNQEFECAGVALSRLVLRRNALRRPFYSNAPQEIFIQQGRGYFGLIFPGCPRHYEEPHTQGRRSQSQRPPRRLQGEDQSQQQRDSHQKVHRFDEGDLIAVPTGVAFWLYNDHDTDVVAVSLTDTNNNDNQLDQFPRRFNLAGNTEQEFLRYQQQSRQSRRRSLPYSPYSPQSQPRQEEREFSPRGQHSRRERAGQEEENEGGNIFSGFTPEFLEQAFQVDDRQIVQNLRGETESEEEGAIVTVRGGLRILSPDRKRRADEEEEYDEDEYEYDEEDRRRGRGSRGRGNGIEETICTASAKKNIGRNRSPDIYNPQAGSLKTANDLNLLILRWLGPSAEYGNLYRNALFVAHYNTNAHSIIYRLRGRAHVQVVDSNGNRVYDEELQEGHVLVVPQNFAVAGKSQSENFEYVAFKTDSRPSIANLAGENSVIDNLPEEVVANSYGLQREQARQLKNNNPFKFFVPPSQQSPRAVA
Description: BLI, antibody on anti-human IgG Fc sensors, Ara h 3 as analyte, top 32 nM. For orientation: In BLI a coated tip is dipped into the sample, and binding shifts an interference pattern.

Experiment [4] deals with T2, Ara h 3 (purified natural peanut …). As to the kind of experiment: BLI, antibody on anti-human IgG Fc sensors, Ara h 3 as analyte, top 16 nM.

T1 sequence (P02769 25-607 limits assumed): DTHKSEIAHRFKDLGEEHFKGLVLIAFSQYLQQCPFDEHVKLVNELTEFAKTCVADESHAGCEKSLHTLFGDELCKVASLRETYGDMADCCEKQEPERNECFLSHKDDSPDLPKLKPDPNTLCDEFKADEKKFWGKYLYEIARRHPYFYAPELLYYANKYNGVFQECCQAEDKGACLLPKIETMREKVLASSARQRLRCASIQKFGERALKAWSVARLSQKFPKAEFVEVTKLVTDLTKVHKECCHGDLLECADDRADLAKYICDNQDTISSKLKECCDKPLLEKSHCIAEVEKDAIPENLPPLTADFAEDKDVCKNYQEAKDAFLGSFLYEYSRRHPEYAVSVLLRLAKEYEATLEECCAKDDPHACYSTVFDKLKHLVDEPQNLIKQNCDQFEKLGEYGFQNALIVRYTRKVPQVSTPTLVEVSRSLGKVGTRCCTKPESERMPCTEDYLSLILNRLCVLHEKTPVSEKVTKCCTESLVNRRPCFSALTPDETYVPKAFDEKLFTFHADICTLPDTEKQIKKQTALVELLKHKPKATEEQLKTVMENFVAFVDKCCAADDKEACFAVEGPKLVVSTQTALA

B1: PA12P4D02 (antibody, human IgG1, V domains shown)
VH: QVQLVESGGGVVQPGRSLRLSCAASGFTFSSYAMHWVRQAPGKGREWVAALSYDGSSTYYADSVKGRLTISRDNSKNTLYLQMNSLRAEDTAVYFCTRVPYGEGRAANDYWGQGTLVTVSS
VL: DIQMTQSPSTLSASVGDRVTITCRASQSIGSWLAWYQQKPGKAPKLLIYKASNIESGVPSRFSGSGSGTEFTLTISSLQPDDFATYYCQHYNTYSRSFGGGTEVAIK
notes: human IgG1
B1: in the experiment with BSA [1], the binding result is recorded as “no binding (tested: 2 ng/µL)”.

B2: PA12P1G11 (antibody, human IgG1, V domains shown)
VH: QVQLVQSGAEVRKPGSSVKVSCKASGGTFSNNPITWVRQAPGQGLEWMGWIIPIFNTTNYAQKFQGRVTITADESTSTAYMELSSLKSEDTALFYCARDRAHAYCNNGVCYTTDAFDVWGQGTLVTVSS
VL: ETVLTQSPATLSLSPGERATLSCRASQSVGRYLAWYQHKPGQAPRLLIYDASNRATGIPARFSGSGSGTDFTLTISSLEPEDSAVYYCQQGTDWLTFGGGTKVEIK
notes: human IgG1
Take B2: in the experiment with BSA [1], the binding result is given as “no binding (tested: 2 ng/µL)”.

B3: PA12P3E09 (antibody, human IgG1, V domains shown)
VH: QVQLVQSGAEVKKPGSSVKVSCKASGGTFSSYSISWVRQAPGQGLEWMGGIIPIFGSGSYAQKFQGRVTITADKSTSTAYMELSSLSSDDTAVYYCARGESPSNFVYYGMDVWGQGTTVTVSS
VL: DIVLTQSPLSLPVTPGEPASISCRSSHSLLHSNGYNHLDWYLQKPGQSPQLLIYLGSNRASGVPDRFSGSGSGTDFTLKISRVEAEDVGVYYCMQALLVTFGPGTKVDIK
notes: human IgG1
For the molecule B3, the binding result with BSA [1] was “no binding (tested: 2 ng/µL)”.

B4: PA12P1D02 (antibody, human IgG1, V domains shown)
VH: QLQLQQWGAGLVKPSETLSLTCTVSGGSLSGHFWSWIRQSPEKGLEWIGEINHSGRKNYNPSLMIRVDISIDTSKNQFSMRMTSLTAADSAVYYCARVGRNIVDTDDAFDVWGRGTLVTVSS
VL: EIVLTQSPGTLSLSPGDTVTLSCRASQTIDSIYLAWYQQRPGQAPRLLIYGASTRATGTPDRFSGGGSGTDFTLTITRLEPEDFAVYFCQQYGTSPPITFGRGTRLEIK
notes: human IgG1
Consider B4, for which, in the experiment with BSA [1], the binding result was “no binding (tested: 2 ng/µL)”.

B5: PA14P3H08 (antibody, human IgG1, V domains shown)
VH: QVQLVESGGGVVQPGRSLTLSCAASGFNFKTYGMHWVRQAPGKGLEWVAVIYHDGNDKFYADSVKGRFTISRDNSKNTLYVQMSSLRADDTAIYYCAKGIFSSGYHYGMDVWGQGTAVIVSS
VL: DIQMTQSPSSLSASLGDSVTITCLASQGIKEFLSWFQQKPGQAPKLLIYDASSSHSGVPSRFSGSGSATHFTLTISSLQPDDIATYYCQQYHQVPLTFGQGTRLEIK
notes: human IgG1
Take B5: the binding result with BSA [1] is “no binding (tested: 2 ng/µL)”.

B6: PA13P1H03 (antibody, human IgG1, V domains shown)
VH: EVQLVESGGGLVQPGGSLRLSCAASGFTFRNYWMNWVRQAPGKGLVWVSRINSEGSSTSYADPVKGRFTISRDNAKDTLYLQMDSLRAEDSAVYYCARIFNGYIHVGRDYWGQGTRVTVSS
VL: DIQMTQSPSTLSASIGDRVTITCRASESISNWLAWFQQKPGKAPKLLIYKASNLESGVPSRFSGSGSGTEFTLTISSLQPDDFATYYCQQYNSNSQTFGQGTKLDLK
notes: human IgG1
On to B6, for which the binding result with BSA [1] is reported as “no binding (tested: 2 ng/µL)”.

B7: PA13P1E10 (antibody, human IgG1, V domains shown)
VH: QVQLVDSGGGVVQPGKSLRLSCVGSGFTFRTFGIHWVRQAPGKGLEWVAVISNDGGNSASADSVKGRFTTSRDNSKNTVYLQINSLRPEDTAIYYCAKVLDYSAFSYYYGMDVWGQGTTVIVSS
VL: EIVLTQSPGTLSLSPGERGTLSCRTSQPISRAHLAWYQHKAGQAPRLLIYGSTERAAGIPERFSGGGSGSDFTLTISSLEAEDFAVYYCQHYGRSPPYTFGQGTKVEIK
notes: human IgG1, kappa
As for B7, in the experiment with BSA [2], the binding result is recorded as “no binding (tested: 2 ng/µL)”. This molecule also gave a Kd in experiment [3] of 5 nM.

B8: PA13P3G09 (antibody, human IgG1, V domains shown)
VH: QEQLVESGGGVVHPGGSLRLSCVASAFTFNRFGMHWVRQAPGKGLEWVAVISNDGRSQDYADSVKGRFIISRDNSKNTLYLQLNSLRFEDTAVYYCAKVLDYSIFYYYFGLDVWGQGTTVTVSS
VL: EVVLTQSPGSLSLSPGERATLSCRAGQSLSSKFLAWYQHKPGQAPRLLIYGASTRATGVPDRFSGSGSGTDFSLIISRVEPEDFAVYYCQHYGDSPPYTFGQGTKVEMK
notes: human IgG1, kappa
B8: the binding result in the experiment with BSA [2] was “no binding (tested: 2 ng/µL)”. Also, the Kd in experiment [3] amounted to 19 nM.

B9: PA12P3E11 (antibody, human IgG1, V domains shown)
VH: QVQLVESGGGLVTPGGSLRLSCTVSGFTLSDYYMSWIRQAPGKGLDWLSYISGSGDNKNYADSVRGRFTISRDNSKNSLYLQMNSLRAEDTAVYYCAREFPSGGYSPGVVLWGQGTLVTVSS
VL: NFVLTQPHSVSESPGKTVTISCARSSGSIAGSFVQWYQQRPGSSPTTVIYEDTRRPSGVPDRFSGSIDSSSNSASLTISGLKTEDEADYYCQSYDSTNPWVFGGGTKLTVL
notes: human IgG1
Consider B9, for which the binding result with BSA [1] was “no binding (tested: 2 ng/µL)”.

B10: PA11P1G10 (antibody, human IgG1, V domains shown)
VH: QVQLQESGPGLVKPSQTLSLTCTVSGGSINTGAYYWSWIRQHPGKGLEWIGYIYYSGSTYYNPSLKSRVTISKDTSKNQFSLRLTSVTAADTAVYYCVREKLTGAPDNWGQGTLVAVSS
VL: DIQMTQSPSSLSASVGDRVTITCRASQGVSNYLAWFHQKPGKAPKSLIYAASTLHDGVPSSFSGSGSGTEFTLTISDLQPEHFGTYYCEQYNSYPFTFGPGTTVDFK
notes: human IgG1
As for B10, in the experiment with BSA [1], the binding result was “no binding (tested: 2 ng/µL)”.

B11: PA13P1H08 variant rCDR1-N (antibody, human IgG1, V domains shown)
VH: QVQLVNSGGGVVQPGRSLRLSCVASGFTFSSYGIHWVRQAPGKGLEWVAVISNDGEKSESADSVKGRFTPSRDNSKNTVYLQMNNLRVEDTAVYYCAKVLDYSRYSYYYGMDVWGQGTTVIVSS
VL: EIVLTQSPGTLSLSPGGRGTLSCRTSQTINNAHLAWYQHKPGQAPRLLIYGSSERATGVPDRFSGSGSGSDFTLTISSLEAEDFAVYYCQHYGRSPPYTFGPGTKLDIK
notes: human IgG1, kappa; also called heavy chain CDR1 reverted
In turn, B11 showed a Kd in experiment [4] of 0.5 nM. Also, the binding result with BSA [2] is given as “no binding (tested: 2 ng/µL)”.

B12: PA13P1H08 variant rCDR2-N (antibody, human IgG1, V domains shown)
VH: QVQLVNSGGGVVQPGRSLRLSCVASGFTFSTFGIHWVRQAPGKGLEWVAVISYDGSNKESADSVKGRFTPSRDNSKNTVYLQMNNLRVEDTAVYYCAKVLDYSRYSYYYGMDVWGQGTTVIVSS
VL: EIVLTQSPGTLSLSPGGRGTLSCRTSQTINNAHLAWYQHKPGQAPRLLIYGSSERATGVPDRFSGSGSGSDFTLTISSLEAEDFAVYYCQHYGRSPPYTFGPGTKLDIK
notes: human IgG1, kappa; also called heavy chain CDR2 reverted
Take B12: the Kd in experiment [4] turned out to be 0.0042 nM. Also, in the experiment with BSA [2], the binding result was “no binding (tested: 2 ng/µL)”.

B13: PA13P1H08 variant rCDR3-N (antibody, human IgG1, V domains shown)
VH: QVQLVNSGGGVVQPGRSLRLSCVASGFTFSTFGIHWVRQAPGKGLEWVAVISNDGEKSESADSVKGRFTPSRDNSKNTVYLQMNNLRVEDTAVYYCAKVLDYSNYYYYYGMDVWGQGTTVIVSS
VL: EIVLTQSPGTLSLSPGGRGTLSCRTSQTINNAHLAWYQHKPGQAPRLLIYGSSERATGVPDRFSGSGSGSDFTLTISSLEAEDFAVYYCQHYGRSPPYTFGPGTKLDIK
notes: human IgG1, kappa; also called heavy chain CDR3 reverted
As to B13, the affinity in experiment [4], expressed as Kd, was 0.29 nM. In the experiment with BSA [2], the binding result was “no binding (tested: 2 ng/µL)”.

B14: PA12P3D08 (antibody, human IgG1, V domains shown)
VH: QVQLVESGGGVVQPGKSLRLSCAASAFTFRRFAMHWVRQAPGKGLEWVAVISDNGLREDYEDSVKGRFTISRDNSQNTLYLQMNGLRAEDTAVYYCAKVLDYNEYSLYFGMDVWGQGTTVTVSS
VL: EVVLTQSPATLSLSPGERATLSCRTSQAISNNFLAWYQQRPGQPPRLLIYASSRRATDTPDRFTGSGSGTDFTLTITRLEPEDFAVYFCQYYSDSPPYTFGPGTKLEIK
notes: human IgG1, kappa
Consider B14, for which the binding result with BSA [2] was “no binding (tested: 2 ng/µL)”. Binding in experiment [3] was put at a Kd of 22 nM.

B15: PA12P1C07 (antibody, human IgG1, V domains shown)
VH: QVQLEESGGGVVQPGKSLRLSCVASAFTFKRFAMHWVRQAPGKGLEWVAVISDNGLREDYEDSVKGRFTISRDNSKDTLYLQMNSLRPEDTAIYYCAKVLDYSEYSLYFGMDVWGQGTTVLVSS
VL: EIVLTQSPAILSLSPGDRATLSCRTSQTVNSNFLAWYQQKPGQAPRLLIYGASRRAIDIPDRFTGSGSGTEFTLTIARLEPEDFAVYSCQHYSDSPPYTFGQGTKLEIK
notes: human IgG1, kappa
For the molecule B15, the binding result with BSA [2] was “no binding (tested: 2 ng/µL)”. For the same molecule, in experiment [3], the Kd was determined as 11 nM.

B16: PA12P3F10 (antibody, human IgG1, V domains shown)
VH: QVQLVESGGGVVQPGGSLTLSCVGSGFTFSHYAIHWVRQAPGKGLEWVAVISNVGTTRDYADSLKGRLTISRENSQSTVFLQMNSLRADDTAIYYCAKVLDYSEFHYYYGLDVWGQGTAVAVSS
VL: EIVLTQSPGTLSLSPGQRVTLSCRVSQAIPTMYVAWYQQRPGQAPRLLIYGTSSRATGIPDRFSGGGSGTDFTLTINRLEPEDIAVYYCQHYSNSPPYTFGPGTKLEIK
notes: human IgG1, kappa
Take B16: in the experiment with BSA [2], the binding result is reported as “no binding (tested: 2 ng/µL)”. The Kd in experiment [3] came to 11 nM.

B17: PA11P1D11 (antibody, human IgG1, V domains shown)
VH: QVELVESGGGVVQPGRSLRLSCVASGFTFSDYGMHWVRQAPGKGLEWVAVIWFDGSSKYYADSVKGRFTISRDDSKNTVFMQMNNVRVEDTAVYYCAREQWLGTEYFQNWGQGTLVTVSS
VL: EIVMTQSPATLSLFPGERATLSCRASQSVAGNLAWYQQKPGQAPRLLIYEASTRATDIPARFSGSGSETEFTLTISSLQSEDFAVYYCQQYKKWLITFGQGTRLEIK
notes: human IgG1
B17: in the experiment with BSA [1], the binding result is “no binding (tested: 2 ng/µL)”.
